Tests used:
SEC = molecular target: the molecule itself; assay: SEC
crystal structure = molecular target: the molecule itself; assay: crystal structure

B1: gpV-DEL (bacteriophage P2 gpV with the Apex domain deleted, ends at Thr196 plus an exogenous Leu197) (domain or fragment)
chain: MNTLANIQELARALRNMIRTGIIVETDLNAGRCRVQTGGMCTDWLQWLTHRAGRSRTWWAPSVGEQVLILAVGGELDTAFVLPGIYSGDNPSPSVSADALHIRFPDGAVIEYEPETSALTVSGIKTASVTASGSVTATVPVVMVKASTRVTLDTPEVVCTNRLITGTLEVQKGGTMRGNIEHTGGELSSNGKVLHTL
**Q.** Does B1 bind (SEC)?
**A.** binds

B2: gpV-AA (full-length bacteriophage P2 gpV, H197A/H199A) (natural protein)
chain: MNTLANIQELARALRNMIRTGIIVETDLNAGRCRVQTGGMCTDWLQWLTHRAGRSRTWWAPSVGEQVLILAVGGELDTAFVLPGIYSGDNPSPSVSADALHIRFPDGAVIEYEPETSALTVSGIKTASVTASGSVTATVPVVMVKASTRVTLDTPEVVCTNRLITGTLEVQKGGTMRGNIEHTGGELSSNGKVLHTAKAPGDSGGTTGSPL
**Q.** Does B2 bind (SEC)?
**A.** binds

B3: gpV-FF (full-length bacteriophage P2 gpV, H197F/H199F) (natural protein)
chain: MNTLANIQELARALRNMIRTGIIVETDLNAGRCRVQTGGMCTDWLQWLTHRAGRSRTWWAPSVGEQVLILAVGGELDTAFVLPGIYSGDNPSPSVSADALHIRFPDGAVIEYEPETSALTVSGIKTASVTASGSVTATVPVVMVKASTRVTLDTPEVVCTNRLITGTLEVQKGGTMRGNIEHTGGELSSNGKVLHTFKFPGDSGGTTGSPL
**Q.** Does B3 bind (SEC)?
**A.** binds

B4: gpVdL-DEL (bacteriophage P2 gpV residues 97-196 plus an exogenous Leu197, Apex domain deleted) (domain or fragment)
chain: ADALHIRFPDGAVIEYEPETSALTVSGIKTASVTASGSVTATVPVVMVKASTRVTLDTPEVVCTNRLITGTLEVQKGGTMRGNIEHTGGELSSNGKVLHTL
**Q.** Does B4 bind (crystal structure)?
**A.** binds

B5: gpVdL-AA (bacteriophage P2 gpV residues 97-211, H197A/H199A) (domain or fragment)
chain: ADALHIRFPDGAVIEYEPETSALTVSGIKTASVTASGSVTATVPVVMVKASTRVTLDTPEVVCTNRLITGTLEVQKGGTMRGNIEHTGGELSSNGKVLHTAKAPGDSGGTTGSPL
**Q.** B5 was tested. Which “stoichiometry N” value (crystal structure) did it give?
**A.** 3

B6: gpVdL-FF (bacteriophage P2 gpV residues 97-211, H197F/H199F) (domain or fragment)
chain: ADALHIRFPDGAVIEYEPETSALTVSGIKTASVTASGSVTATVPVVMVKASTRVTLDTPEVVCTNRLITGTLEVQKGGTMRGNIEHTGGELSSNGKVLHTFKFPGDSGGTTGSPL
**Q.** B6 was tested. Which “stoichiometry N” value (crystal structure) did it give?
**A.** 3

From doi:10.1101/2023.02.25.529910 (bioRxiv, 2023)
